According to patent US20250381307A1, “RETRO-AAV AND USE IN TREATING NEURODEGENERATIVE DISEASES” (priority 2023, published 2025):

How the values were obtained:
[1] = tested on: striatonigral projection neurons (striatal MSNs); experiment: Retrograde labeling of striatal MSNs after AAV injection into the SNr (EYFP+ cell counting); assay type: in vivo, mice; conditions: for labeled striatonigral projection neurons (FIG. 2C): wild type mice, n=3, mean±SEM
From the text: (§1) Brain profiles of two epigenetic marks for enhancers and promoters, monomethylation of histone H3 lysine 4 (H3K4me1) and acetylation of histone H3 lysine 27 (H3K27ac) were checked and approximately 2 kilobase-long sequences around the transcriptional start site (TSS) that have high levels of H3K4me1 and/or H3K27ac were identified in mouse brain. Homologous sequences at equivalent positions of the human genome were then cloned onto an AAV backbone, and the activity of the homologous sequences in directing reporter expression was tested in mice after injections of AAVs into the SNr (FIG. 3A-C, TABLE 3).
(§2) Mice were anesthetized with sodium pentobarbital (Nembutal; 80 mg/kg, i.p.), and then placed into a stereotaxic device (KOPF). Eye cream was applied on both corneas to avoid dehydration. The skull above the targeted areas was thinned with a dental drill and carefully removed. Injections were conducted with a 10 μL syringe connected to a 33-Gauge needle (Neuros; Hamilton), using a microsyringe pump (Legato 130, KD Scientific). A total volume of 200 nL virus was injected into the SNr at a speed of 20 nL/min. The coordinates for the SNr were 3.4 mm posterior, 1.3 mm lateral, 4.8 mm ventral to the bregma.
(§3) Images were acquired using a confocal microscope (Carl Zeiss, LSM880) and an Axiolmager.Z1 microscope with apotome (Carl Zeiss). Brain structures were identified microscopically and in digital photos using a mouse brain atlas. To analyze the number of EYFP+ cells in the striatum, slices from rostral to caudal striatum were used. Every sixth section was analyzed, and numbers of EYFP+ cells were multiplied by six to acquire the approximate total number and mean number of cells per animal. Images were processed using ImageJ (NIH, USA), and final quantifications were independently performed manually by two blinded experimenters.

[2] = tested on: MSNs in nucleus accumbens; experiment: Retrograde labeling of accumbal MSNs after delivery into ventral pallidum or lateral hypothalamus; assay type: in vivo, mouse; conditions: stereotaxic delivery into ventral pallidum or lateral hypothalamus
substantia nigra = experiment: Promoter activity level in substantia nigra after AAV injection into the SNr; assay type: in vivo, mice; conditions: numbers of YFP-expressing neurons per animal
From the text: as §1, §2, §3

B1: AAV8R: AAV8 capsid with N385D, insertion of SEQ ID NO: 31 at position 588 and TS to IN mutation (SEQ ID NO: 1) (protein)
chain: MAADGYLPDWLEDNLSEGIREWWALKPGAPKPKANQQKQDDGRGLVLPGYKYLGPFNGLDKGEPVNAADAAALEHDKAYDQQLQAGDNPYLRYNHADAEFQERLQEDTSFGGNLGRAVFQAKKRVLEPLGLVEEGAKTAPGKKRPVEPSPQRSPDSSTGIGKKGQQPARKRLNFGQTGDSESVPDPQPLGEPPAAPSGVGPNTMAAGGGAPMADNNEGADGVGSSSGNWHCDSTWLGDRVITTSTRTWALPTYNNHLYKQISNGTSGGATNDNTYFGYSTPWGYFDFNRFHCHFSPRDWQRLINNNWGFRPKRLSFKLFNIQVKEVTQNEGTKTIANNLTSTIQVFTDSEYQLPYVLGSAHQGCLPPFPADVFMIPQYGYLTLNDGSQAVGRSSFYCLEYFPSQMLRTGNNFQFTYTFEDVPFHSSYAHSQSLDRLMNPLIDQYLYYLSRTQTTGGTANTQTLGFSQGGPNTMANQAKNWLPGPCYRQQRVSTTTGQNNNSNFAWTAGTKYHLNGRNSLANPGIAMATHKDDEERFFPSNGILIFGKQNAARDNADYSDVMLTSEEEIKTTNPVATEEYGIVADNLQRGNLADQDYTKTARQAATADVNSQGALPGMVWQNRDVYLQGPIWAKIPHTDGNFHPSPLMGGFGLKHPPPQILIKNTPVPADPPTTFNQSKLNSFITQYSTGQVSVEIEWELQKENSKRWNPEIQYTSNYYKSINVDFAVNTEGVYSEPRPIGTRYLTRNL
labeled striatonigral projection neurons (FIG. 2C) ([1]; SNr injection): 10092±463.9 | labeling of MSNs in nucleus accumbens [2]: robust labeling

B2: G88P7: 896-bp shortened derivative of G88P2 promoter (SEQ ID NO: 46) (nucleic acid, listed as Homo sapiens)
DNA: ATGCCAAGCGTGGAAAGGCTGTCTTTTCCCTGGATGATGTATAACTAAGCAGGAGAGAGCTTCGAGTGGGTTCACCACATCAGCCACCACTCCTGCTTCTGAGCACAGGGTGCTCTCCTCTTGAGCTCAGCTTCTGCTTTTGCAGCCAAGCATTCTTGCTGCTGCTGCCTGCCTGCCCACCCGCCTGGGCTTGCAGCCCGCCACTTTACTTTCTCCAGCCCTGATACCAGCTGAGAAGTCTCCCTGCAGCTGCTAGTTCCTGCCCAGGACCATGTGTGTGGATGCTGCTTGGGAGAAGCGGGCACTTGCTCCTGGCACTGATCCCAGCTGAGTTTCTCCTGTTGATTTCTGGACCACTGATGCTGTTGCTGAGGAGGTATTTCCCGGCATCCCTCCCCCTGAGACACCGGCTAAGGACCAGCCTAAACGCAAGGTAACCTTCACCTCTTTCCCATGGGATTTTCCCCAGCTGGGATATCTCTGCTTTCTCCTGGAACTAGGTCCTCCAGCTGGCAACATATCTCTCTCTCTCTCTCTCTCTCTCTCTCTCTCTCTCTCTCTGTGTGTGTGTGTGTGTGTTGGGGGAGAAGAGGAGACTGTTTTAGGTATTGCTCTGTCCTAGGGCTTCCCCGATACCTGCTGAATCCAATGCAAAGTGGCCTTTCCCCTGGCTCTGGAGACATTTCCGAGGCAGGCACCTGTCATCTGCCACCCCCGTCCTCCTCCTCGAGCTCCCTTTCTCCCCCTCCCCCAGCCCATTATTCTGCTTCAGCCTTTTGTGTCAGTGGCAGAGGGCTGAAGGGATGTCTTTGCCCTTCTGGCAGGCAGGACAGTGTCAGGATGGACCGCGCTGCCAGAAGCCGACGCTAGCGAGGGAGGTGTGAAGAGTTGGCCAG
reporter-labeled MSNs by promoter (FIG. 4B) ([1]; SNr injection, n=3 mice, mean±SEM): 39460±7281 | Activity Level STR ([1]; striatum, numbers of YFP-expressing neurons per animal): ++++ (>25k) | labeled MSNs per mouse ([1]; viruses expressing EYFP, injection into the SNr (FIG. 4B)): 3.95±0.73 ×104 MSNs per mouse | Activity Level SN (substantia nigra): + (<5k)

B3: AAV8R12: AAV8R capsid mutant V183E + N411S (SEQ ID NO: 13; SEQ ID NO: 59) (protein)
chain: MAADGYLPDWLEDNLSEGIREWWALKPGAPKPKANQQKQDDGRGLVLPGYKYLGPFNGLDKGEPVNAADAAALEHDKAYDQQLQAGDNPYLRYNHADAEFQERLQEDTSFGGNLGRAVFQAKKRVLEPLGLVEEGAKTAPGKKRPVEPSPQRSPDSSTGIGKKGQQPARKRLNFGQTGDSESEPDPQPLGEPPAAPSGVGPNTMAAGGGAPMADNNEGADGVGSSSGNWHCDSTWLGDRVITTSTRTWALPTYNNHLYKQISNGTSGGATNDNTYFGYSTPWGYFDFNRFHCHFSPRDWQRLINNNWGFRPKRLSFKLFNIQVKEVTQNEGTKTIANNLTSTIQVFTDSEYQLPYVLGSAHQGCLPPFPADVFMIPQYGYLTLNDGSQAVGRSSFYCLEYFPSQMLRTGNSFQFTYTFEDVPFHSSYAHSQSLDRLMNPLIDQYLYYLSRTQTTGGTANTQTLGFSQGGPNTMANQAKNWLPGPCYRQQRVSTTTGQNNNSNFAWTAGTKYHLNGRNSLANPGIAMATHKDDEERFFPSNGILIFGKQNAARDNADYSDVMLTSEEEIKTTNPVATEEYGIVADNLQRGNLADQDYTKTARQAATADVNSQGALPGMVWQNRDVYLQGPIWAKIPHTDGNFHPSPLMGGFGLKHPPPQILIKNTPVPADPPTTFNQSKLNSFITQYSTGQVSVEIEWELQKENSKRWNPEIQYTSNYYKSINVDFAVNTEGVYSEPRPIGTRYLTRN
Labeling Efficiency in Striatonigral Pathway ([1]; AAV8R capsid mutants, numbers of labeled neurons per animal): +++ (10k-25k) | labeled striatonigral projection neurons (FIG. 2C) ([1]; SNr injection): 16026±1654 | times EYFP positive / labeled MSNs compared to rAAV2-retro ([1]; after nigral delivery, hSyn-EYFP): 7.72±0.78 times | labeling of MSNs in nucleus accumbens [2]: robust labeling
